Assay [1] concerns the target full-length WT METTL1, unlabeled (without WDR4) (human, UniProt Q9UBP6 1-276). Put plainly: NMR titration.
The target of assay [2] is full-length R109A/K111A METTL1, unlabeled (human, UniProt Q9UBP6 1-276, R109A | K111A). As to the kind of experiment: NMR titration.

We go through two molecules from PMC11179147 (Nature, 2023).

B1: METTL1 1-75 (N-terminal segment of METTL1), isotope-labelled (domain or fragment, human, UniProt Q9UBP6 1-75, looked up)
chain: MAAETRNVAGAEAPPPQKRYYRQRAHSNPMADHTLRYPVKPEEMDWSELYPEFFAPLTQNQSHDDPKDKKEKRAQ
With B1, the binding result in assay [1] and in assay [2] was “binds” in each case.

B2: S27D METTL1 1-75, isotope-labelled (domain or fragment, human, UniProt Q9UBP6 1-75, looked up)
chain: MAAETRNVAGAEAPPPQKRYYRQRAHDNPMADHTLRYPVKPEEMDWSELYPEFFAPLTQNQSHDDPKDKKEKRAQ
Take B2: in assay [1], the binding result was “binds”.
